Experimental data: patent US20210388087A1 (Chugai, published 2021)
Where a chain is given by its changes, count along the chain named. Blank lines part the entries; values can stand above or below the binder they belong to.

Experiments:
[1] = biological target: T1, CD3 epsilon homodimer protein (UniProt P07766 23-126); experiment: SPR Biacore T200, CD3e homodimer on chip, vs unaltered GLS3000 antibody
T1 construct: also called CD3 (CD3 epsilon)
T1 sequence (P07766 23-126): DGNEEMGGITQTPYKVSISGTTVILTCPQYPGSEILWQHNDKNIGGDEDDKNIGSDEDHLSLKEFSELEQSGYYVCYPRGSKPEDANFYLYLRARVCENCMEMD

[2] = biological target: T2, CD3 epsilon homodimer protein (UniProt P07766 23-126); experiment: SPR, antibody over immobilised CD3e homodimer;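 further: SPR at 25 °C with CD3 epsilon homodimer amine-coupled to a CM4 sensor chip and antibody flowed over as analyte in HBS-EP+ running buffer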
T2 construct: also called CD3 (CD3 epsilon)
T2 sequence (P07766 23-126): as above

ratio of amounts bound (Z=Y/X) [1]: 0.93
B1: GLS3000 V94T (antibody, name in Kabat numbering, V domains shown)
VH: QVQLVESGGGVVQPGRSLRLSCAASGFTFSNAWMHWVRQAPGKGLEWVAQIKAKSNNYATYYAESVKGRFTISRDDSKNSLYLQMNSLKTEDTAVYYCRYVHYGAYYGVDAWGQGTTVTVSS
VL: DIVMTQSPLSLPVTPGEPASISCRSSQSLVHSNRNTYLHWYQQKPGQAPRLLIYKVSNRFSGVPDRFSGSGSGTDFTLKISRVEAEDVGVYYCGQGTQTPYTFGQGTKLEIK
notes: one-arm IgG as m2

KD ratio to GLS3000 [2]: 2.38
B5: CE115HA000/GLS3000 G89L (antibody, IgG1, name in Kabat numbering, V domains shown)
VH: B1 VH
VL: B1 VL with G94L, T99V
notes: one-arm IgG1

KD ratio to GLS3000 [2]: 1.4
B6: CE115HA000/GLS3000 G89V (antibody, IgG1, name in Kabat numbering, V domains shown)
VH: B1 VH
VL: B1 VL with G94V, T99V
notes: one-arm IgG1

ratio of amounts bound (Z=Y/X) [1]: 0.32
B8: GLS3000 Y96L (antibody, name in Kabat numbering, V domains shown)
VH: B1 VH
VL: B1 VL with T99V, Y101L
notes: one-arm IgG as m2

ratio of amounts bound (Z=Y/X) [1]: 0.24
B14: GLS3000 Y32A (antibody, name in Kabat numbering, V domains shown)
VH: B1 VH
VL: B1 VL with Y37A, T99V
notes: one-arm IgG as m2

ratio of amounts bound (Z=Y/X) [1]: 0.29
B15: GLS3000 Y32F (antibody, name in Kabat numbering, V domains shown)
VH: B1 VH
VL: B1 VL with Y37F, T99V
notes: one-arm IgG as m2

KD ratio to GLS3000 [2]: 1.2
B16: CE115HA000/GLS3000 G89N (antibody, IgG1, name in Kabat numbering, V domains shown)
VH: B1 VH
VL: B1 VL with G94N, T99V
notes: one-arm IgG1

KD ratio to GLS3000 [2]: 1.11
B17: CE115HA000/GLS3000 G89I (antibody, IgG1, name in Kabat numbering, V domains shown)
VH: B1 VH
VL: B1 VL with G94I, T99V
notes: one-arm IgG1

KD ratio to GLS3000 [2]: 2.11
B20: CE115HA000/GLS3000 G89Q (antibody, IgG1, name in Kabat numbering, V domains shown)
VH: B1 VH
VL: B1 VL with G94Q, T99V
notes: one-arm IgG1

ratio of amounts bound (Z=Y/X) [1]: 0.17
B21: GLS3000 Y96E (antibody, name in Kabat numbering, V domains shown)
VH: B1 VH
VL: B1 VL with T99V, Y101E
notes: one-arm IgG as m2

KD ratio to GLS3000 [2]: 1.8
B22: CE115HA000/GLS3000 G89K (antibody, IgG1, name in Kabat numbering, V domains shown)
VH: B1 VH
VL: B1 VL with G94K, T99V
notes: one-arm IgG1

ratio of amounts bound (Z=Y/X) [1]: 0.23
B23: GLS3000 Y32D (antibody, name in Kabat numbering, V domains shown)
VH: B1 VH
VL: B1 VL with Y37D, T99V
notes: one-arm IgG as m2

ratio of amounts bound (Z=Y/X) [1]: 1.17
B24: GLS3000 Y96F (antibody, name in Kabat numbering, V domains shown)
VH: B1 VH
VL: B1 VL with T99V, Y101F
notes: one-arm IgG as m2

ratio of amounts bound (Z=Y/X) [1]: 0.58
B28: GLS3000 V94W (antibody, name in Kabat numbering, V domains shown)
VH: B1 VH
VL: B1 VL with T99W
notes: one-arm IgG as m2

KD ratio to GLS3000 [2]: 1.8
B29: CE115HA000/GLS3000 G89P (antibody, IgG1, name in Kabat numbering, V domains shown)
VH: B1 VH
VL: B1 VL with G94P, T99V
notes: one-arm IgG1

ratio of amounts bound (Z=Y/X) [1]: 0.23
B32: GLS3000 Y96H (antibody, name in Kabat numbering, V domains shown)
VH: B1 VH
VL: B1 VL with T99V, Y101H
notes: one-arm IgG as m2

ratio of amounts bound (Z=Y/X) [1]: 0.17
B37: GLS3000 Y96D (antibody, name in Kabat numbering, V domains shown)
VH: B1 VH
VL: B1 VL with T99V, Y101D
notes: one-arm IgG as m2

KD ratio to GLS3000 [2]: 1.96
B39: CE115HA000/GLS3000 G89M (antibody, IgG1, name in Kabat numbering, V domains shown)
VH: B1 VH
VL: B1 VL with G94M, T99V
notes: one-arm IgG1

ratio of amounts bound (Z=Y/X) [1]: 0.24
B40: GLS3000 Y32P (antibody, name in Kabat numbering, V domains shown)
VH: B1 VH
VL: B1 VL with Y37P, T99V
notes: one-arm IgG as m2

KD ratio to GLS3000 [2]: 1.1
B44: CE115HA000/GLS3000 G89T (antibody, IgG1, name in Kabat numbering, V domains shown)
VH: B1 VH
VL: B1 VL with G94T, T99V
notes: one-arm IgG1

ratio of amounts bound (Z=Y/X) [1]: 0.63
B45: GLS3000 V94Y (antibody, name in Kabat numbering, V domains shown)
VH: B1 VH
VL: B1 VL with T99Y
notes: one-arm IgG as m2

KD ratio to GLS3000 [2]: 4130
B46: CE115HA000/GLS3000 G89R (antibody, IgG1, name in Kabat numbering, V domains shown)
VH: B1 VH
VL: B1 VL with G94R, T99V
notes: one-arm IgG1

Continued, binder first:

B2: CE115HA000/GLS3000 S27eA (antibody, IgG1, name in Kabat numbering, V domains shown)
VH: B1 VH
VL: B1 VL with S32A, T99V
notes: one-arm IgG1
KD ratio to GLS3000 [2]: 1.01

B3: CE115HA000/GLS3000 F55V (antibody, IgG1, name in Kabat numbering, V domains shown)
VH: B1 VH
VL: B1 VL with F60V, T99V
notes: one-arm IgG1
KD ratio to GLS3000 [2]: 1.12

B4: CE115HA000/GLS3000 F55T (antibody, IgG1, name in Kabat numbering, V domains shown)
VH: B1 VH
VL: B1 VL with F60T, T99V
notes: one-arm IgG1
KD ratio to GLS3000 [2]: 2.42

B7: CE115HA000/GLS3000 F55S (antibody, IgG1, name in Kabat numbering, V domains shown)
VH: B1 VH
VL: B1 VL with F60S, T99V
notes: one-arm IgG1
KD ratio to GLS3000 [2]: 1.15

B9: CE115HA000/GLS3000 F55M (antibody, IgG1, name in Kabat numbering, V domains shown)
VH: B1 VH
VL: B1 VL with F60M, T99V
notes: one-arm IgG1
KD ratio to GLS3000 [2]: 1.29

B10: CE115HA000/GLS3000 F55K (antibody, IgG1, name in Kabat numbering, V domains shown)
VH: B1 VH
VL: B1 VL with F60K, T99V
notes: one-arm IgG1
KD ratio to GLS3000 [2]: 1.55

B11: CE115HA000/GLS3000 F55D (antibody, IgG1, name in Kabat numbering, V domains shown)
VH: B1 VH
VL: B1 VL with F60D, T99V
notes: one-arm IgG1
KD ratio to GLS3000 [2]: 1.02

B12: CE115HA000/GLS3000 F55L (antibody, IgG1, name in Kabat numbering, V domains shown)
VH: B1 VH
VL: B1 VL with F60L, T99V
notes: one-arm IgG1
KD ratio to GLS3000 [2]: 1.43

B13: CE115HA000/GLS3000 F55E (antibody, IgG1, name in Kabat numbering, V domains shown)
VH: B1 VH
VL: B1 VL with F60E, T99V
notes: one-arm IgG1
KD ratio to GLS3000 [2]: 0.92

B18: CE115HA000/GLS3000 F55N (antibody, IgG1, name in Kabat numbering, V domains shown)
VH: B1 VH
VL: B1 VL with F60N, T99V
notes: one-arm IgG1
KD ratio to GLS3000 [2]: 0.91

B19: CE115HA000/GLS3000 G89D (antibody, IgG1, name in Kabat numbering, V domains shown)
VH: B1 VH
VL: B1 VL with G94D, T99V
notes: one-arm IgG1
KD ratio to GLS3000 [2]: 1.96

B25: CE115HA000/GLS3000 F55R (antibody, IgG1, name in Kabat numbering, V domains shown)
VH: B1 VH
VL: B1 VL with F60R, T99V
notes: one-arm IgG1
KD ratio to GLS3000 [2]: 1.27

B26: CE115HA000/GLS3000 G89F (antibody, IgG1, name in Kabat numbering, V domains shown)
VH: B1 VH
VL: B1 VL with G94F, T99V
notes: one-arm IgG1
KD ratio to GLS3000 [2]: 3.34

B27: CE115HA000/GLS3000 F55P (antibody, IgG1, name in Kabat numbering, V domains shown)
VH: B1 VH
VL: B1 VL with F60P, T99V
notes: one-arm IgG1
KD ratio to GLS3000 [2]: 1.15

B30: CE115HA000/GLS3000 F55A (antibody, IgG1, name in Kabat numbering, V domains shown)
VH: B1 VH
VL: B1 VL with F60A, T99V
notes: one-arm IgG1
KD ratio to GLS3000 [2]: 1.16

B31: CE115HA000/GLS3000 F55I (antibody, IgG1, name in Kabat numbering, V domains shown)
VH: B1 VH
VL: B1 VL with F60I, T99V
notes: one-arm IgG1
KD ratio to GLS3000 [2]: 1.28

B33: CE115HA000/GLS3000 F55W (antibody, IgG1, name in Kabat numbering, V domains shown)
VH: B1 VH
VL: B1 VL with F60W, T99V
notes: one-arm IgG1
KD ratio to GLS3000 [2]: 1.72

B34: CE115HA000/GLS3000 F55Q (antibody, IgG1, name in Kabat numbering, V domains shown)
VH: B1 VH
VL: B1 VL with F60Q, T99V
notes: one-arm IgG1
KD ratio to GLS3000 [2]: 1.09

B35: CE115HA000/GLS3000 F55Y (antibody, IgG1, name in Kabat numbering, V domains shown)
VH: B1 VH
VL: B1 VL with F60Y, T99V
notes: one-arm IgG1
KD ratio to GLS3000 [2]: 1.13

B36: CE115HA000/GLS3000 F55H (antibody, IgG1, name in Kabat numbering, V domains shown)
VH: B1 VH
VL: B1 VL with F60H, T99V
notes: one-arm IgG1
KD ratio to GLS3000 [2]: 1.02

B38: CE115HA000/GLS3000 G89A (antibody, IgG1, name in Kabat numbering, V domains shown)
VH: B1 VH
VL: B1 VL with G94A, T99V
notes: one-arm IgG1
KD ratio to GLS3000 [2]: 1.1

B41: CE115HA000/GLS3000 G89E (antibody, IgG1, name in Kabat numbering, V domains shown)
VH: B1 VH
VL: B1 VL with G94E, T99V
notes: one-arm IgG1
KD ratio to GLS3000 [2]: 34.6

B42: CE115HA000/GLS3000 G89H (antibody, IgG1, name in Kabat numbering, V domains shown)
VH: B1 VH
VL: B1 VL with G94H, T99V
notes: one-arm IgG1
KD ratio to GLS3000 [2]: 1.44

B43: CE115HA000/GLS3000 F55G (antibody, IgG1, name in Kabat numbering, V domains shown)
VH: B1 VH
VL: B1 VL with F60G, T99V
notes: one-arm IgG1
KD ratio to GLS3000 [2]: 1.15
